Drawing on PMC8445963, this text covers other: % invadopodia with PLA spots and other: % invadopodia with no PLA spots (none) (% invadopodia) for one substance.

The experiment deals with MYC-tagged Exo70 wild-type (in MTLn3 cells) (UniProt Q9UPT5). Kind of experiment: proximity ligation assay. As to conditions: N = 3 experiments.
UniProt Q9UPT5, sequence (Q9UPT5 whole entry): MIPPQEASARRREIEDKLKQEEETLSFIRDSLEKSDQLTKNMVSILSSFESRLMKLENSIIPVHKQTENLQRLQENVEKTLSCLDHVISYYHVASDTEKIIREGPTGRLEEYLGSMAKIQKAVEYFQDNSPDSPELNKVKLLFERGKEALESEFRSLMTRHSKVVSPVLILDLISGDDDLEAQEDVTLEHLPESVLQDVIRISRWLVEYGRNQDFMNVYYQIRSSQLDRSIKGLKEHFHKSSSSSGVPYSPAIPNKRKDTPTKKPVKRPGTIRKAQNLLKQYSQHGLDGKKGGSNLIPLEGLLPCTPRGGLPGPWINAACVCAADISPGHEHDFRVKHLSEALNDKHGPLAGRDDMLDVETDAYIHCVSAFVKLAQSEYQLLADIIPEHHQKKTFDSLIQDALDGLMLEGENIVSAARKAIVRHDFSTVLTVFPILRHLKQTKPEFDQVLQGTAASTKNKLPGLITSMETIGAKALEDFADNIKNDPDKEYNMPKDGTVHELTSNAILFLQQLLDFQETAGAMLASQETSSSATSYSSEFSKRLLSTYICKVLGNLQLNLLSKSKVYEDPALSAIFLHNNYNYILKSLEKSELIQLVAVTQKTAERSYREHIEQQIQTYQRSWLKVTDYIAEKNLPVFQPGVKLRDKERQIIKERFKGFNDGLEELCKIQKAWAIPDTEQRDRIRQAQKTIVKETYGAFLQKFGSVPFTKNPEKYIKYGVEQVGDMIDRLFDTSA

“Flag-tagged TC10 wild-type (in MTLn3 cells) P43L; E45V; Y46H; T49A; Y54C”: the other: % invadopodia with PLA spots at core (% invadopodia) (category: core, parent: est. 23, read off a plot) stood at 16. Moreover, the other: % invadopodia with no PLA spots (none) (% invadopodia) (category: none, parent: est. 33, read off a plot) was 55. Besides, under “category: side, parent: est. 44, read off a plot”, the other: % invadopodia with PLA spots at side (% invadopodia) turned out to be 29.
